Source: article PMC11022410, “Synthesis and characterization of water-soluble C60–peptide conjugates” (Beilstein Journal of Organic Chemistry, 2024)

Experiments:
[1] = type: physicochemical; settings: for Solubility in Milli-Q water (pH 7.0): from lyophilized solid, Milli-Q water pH 7.0, visual (transparent solution), also with sonication, 5b purified, 5c crude; for Solubilizing solvents (Table S1): list of the solvents used to solubilize the molecules; for Solubility in acidic eluent used for HRESIMS: mixture of MeOH and water containing 0.1% formic acid
Procedure: The water solubility of C60–peptide conjugates 5a–c was tested after the removal of any remaining solvent traces by lyophilization. […]
Solubility of C60–oligopeptides 5a–c
Table S1. List of the solubilizing solvents for compounds 5a-5c. […]

[2] = Photoinduced 1O2 generation by ESR spin trapping with 4-oxo-TEMP; settings: green LED 527 nm, 1 min or 10 min; PS 40 μM, 4-oxo-TEMP 80 mM, 60 mM phosphate buffer pH 7.0, O2-bubbled, 296 K
Procedure: To preliminarily evaluate the synthesized C60–oligo-Lys (5a) as a PS, generation of singlet oxygen was measured by the ESR spin trapping method under irradiation of visible light (527 nm green LED). 4-Oxo-TEMP was used as a spin trapping reagent to form an adduct with ^1O2, i.e., 4-oxo-TEMPO, which was observed by ESR (Figure 7b).
Figure 7 a) X-band ESR spectra of the 4-oxo-TEMP adduct with ^1O2 generated by C60–oligo-Lys (5a) and rose bengal (RB), respectively, in aqueous solutions under irradiation with a green LED lamp (527 nm) for 1 min or 10 min. PS: 40 μM, 4-oxo-TEMP: 80 mM, in 60 mM phosphate buffer (pH 7.0). Measurement conditions: temperature 296 K, microwave frequency 10.03 GHz, microwave power 10 mW, receiver gain 5.0 × 10^4, modulation amplitude 1.00 G, modulation frequency 100 KHz, sweep time 83.89 s, number of scans: 1. b) Scheme for the photoinduced ^1O2 generation by C60 and reaction with spin trapping reagent 4-oxo-TEMP to form 4-oxo-TEMPO.
Detection of photoinduced 1O2 generation by ESR spin trapping
ESR measurements were carried out on a Bruker spectrometer equipped with a microwave bridge X-band ER. […]
1O2 generation was detected through the 1O2 adduct of 4-oxo-TEMP generated in an aqueous solution of C60−oligo-Lys (5a) and rose bengal as reference under irradiation by a green LED (527 nm). […]

SMILES	Solubility in Milli-Q water (pH 7.0) [1]	Solubilizing solvents (Table S1) [1]	Solubility in nonpolar solvents ([1]; most nonpolar solvents, including toluene and CH2Cl2)	Solubility in other polar solvents ([1]; other polar solvents, including MeOH and DMSO)	Solubility in acidic eluent used for HRESIMS [1]	Solubility in polar and nonpolar solvents ([1]; most polar and nonpolar solvents)	Solubility over the tested pH value range ([1]; tested pH value range 4.0–9.2)	1O2 generation under visible light irradiation (ESR signal of 4-oxo-TEMPO) [2]
NCCCC[C@H](NC(=O)[C@H](CCCCN)NC(=O)[C@H](CCCCN)NC(=O)[C@H](CCCCN)NC(=O)[C@H](CCCCN)NC(=O)CCCNC(=O)CC(CC(=O)NCCCC(=O)N[C@@H](CCCCN)C(=O)N[C@@H](CCCCN)C(=O)N[C@@H](CCCCN)C(=O)N[C@@H](CCCCN)C(=O)N[C@@H](CCCCN)C(=O)O)N1CC23c4c5c6c7c8c9c(c%10c%11c2c2c4c4c%12c5c5c6c6c8c8c%13c9c9c%10c%10c%11c%11c2c2c4c4c%12c%12c5c5c6c8c6c8c%13c9c9c%10c%10c%11c2c2c4c4c%12c5c6c5c8c9c%10c2c45)C73C1)C(=O)O (stereo partly shown) [5a, C60–oligo-Lys]	immediately and thoroughly solubilized	water (pH 4.0–9.2), MeOH, DMSO	not highly soluble	slightly soluble	–	–	–	–
O=C(O)CC[C@H](NC(=O)[C@H](CCC(=O)O)NC(=O)[C@H](CCC(=O)O)NC(=O)[C@H](CCC(=O)O)NC(=O)[C@H](CCC(=O)O)NC(=O)CCCNC(=O)CC(CC(=O)NCCCC(=O)N[C@@H](CCC(=O)O)C(=O)N[C@@H](CCC(=O)O)C(=O)N[C@@H](CCC(=O)O)C(=O)N[C@@H](CCC(=O)O)C(=O)N[C@@H](CCC(=O)O)C(=O)O)N1CC23c4c5c6c7c8c9c(c%10c%11c2c2c4c4c%12c5c5c6c6c8c8c%13c9c9c%10c%10c%11c%11c2c2c4c4c%12c%12c5c5c6c8c6c8c%13c9c9c%10c%10c%11c2c2c4c4c%12c5c6c5c8c9c%10c2c45)C73C1)C(=O)O (stereo partly shown) [5b, C60–oligo-Glu]	did not produce transparent solutions	25 mM TRIS buffer (pH > 8.3), 2% NaOD in D2O (pH 13.7)	–	–	insolubility	–	–	–
N=C(N)NCCC[C@H](NC(=O)[C@H](CCCNC(=N)N)NC(=O)[C@H](CCCNC(=N)N)NC(=O)[C@H](CCCNC(=N)N)NC(=O)[C@H](CCCNC(=N)N)NC(=O)CCCNC(=O)CC(CC(=O)NCCCC(=O)N[C@@H](CCCNC(=N)N)C(=O)N[C@@H](CCCNC(=N)N)C(=O)N[C@@H](CCCNC(=N)N)C(=O)N[C@@H](CCCNC(=N)N)C(=O)N[C@@H](CCCNC(=N)N)C(=O)O)N1CC23c4c5c6c7c8c9c(c%10c%11c2c2c4c4c%12c5c5c6c6c8c8c%13c9c9c%10c%10c%11c%11c2c2c4c4c%12c%12c5c5c6c8c6c8c%13c9c9c%10c%10c%11c2c2c4c4c%12c5c6c5c8c9c%10c2c45)C73C1)C(=O)O (stereo partly shown) [5c, C60–oligo-Arg]	did not produce transparent solutions	insoluble in most solvents	–	–	slightly soluble	not soluble in most polar and nonpolar solvents	remained insoluble	–
O=C([O-])c1c(Cl)c(Cl)c(Cl)c(Cl)c1-c1c2cc(I)c(=O)c(I)c-2oc2c(I)c([O-])c(I)cc12.[Na+].[Na+] [rose bengal]	–	–	–	–	–	–	–	three peaks corresponding to 4-oxo-TEMPO were observed
